# Results as given in the supplement of paper PMC10567573.
# ± gives the standard deviation.
# Experiment: protein stability index of a GFP-peptide fusion (GPS, HEK-293T) (PSI 1-6); higher = more stable
# Conditions: c terminus: a fixed tail appended
# 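Further: 24-mer peptide tiles fused after GFP, lentivirally expressed, FACS-sorted into six equal bins by GFP/DsRed ratio, decoded by Illumina sequencing, PSI is the read-weighted mean bin number.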
Sequence,protein stability index (treatment: DMSO),"protein stability index (treatment: MLN4924 1 uM, 8 h)"
RHSNVVILTTSNITEKIDVAFVDR [TRIP13],2.34 ± 0.29,2.14 ± 0.16
QILDSLSYMRNENVISELNIEDYF [FBXO39],2.32 ± 0.29,2.2 ± 0.12
SAPVETPRGKPPLNTRSQAPLLRW [HMOX1],3.64 ± 0.26,3.72 ± 0.24
GGRLENQKPRGLEGGVLRGSKLEK [ZSWIM9],4.91 ± 0.68,4.9 ± 0.65
LSQPQQGEAMLANFKPRGYSECIV [GAN],3.13 ± 0.21,3.02 ± 0.37
MEDKEMTGPQLPESLEDVAMYISQ [ZNF263],4.73 ± 0.23,4.78 ± 0.2
EKKDTITNDSLSLKPSWFDFGFAI [MIA2],2.46 ± 0.19,2.48 ± 0.19
PSLGDSLESIPSLSQSPEPGRRGD [RTN2],5.32 ± 0.45,5.48 ± 0.12
KSKHAPRGTHLWEFIRDILIHPEL [ELF3],2.6 ± 0.75,2.26 ± 0.36
ESSSDSGSSDSEEERATRLAELQE [BRD3],5.5 ± 0.25,5.51 ± 0.063
YGLQGGMAFLDKRLQVKEHQHEEI [ATL3],3.06 ± 0.51,3.39 ± 0.65
RLDIVKYLVENNANISIANKYDNT [FEM1B],2.5 ± 0.17,2.64 ± 0.4
DVLLTLKHTVKEHECKLTQEILEL [IQUB],2.12 ± 0.2,1.96 ± 0.47
PPHVLISRPSAPFTEASMMMSLTK [ESR2],3.48 ± 0.084,3.44 ± 0.18
RNLEDIHMSLEKDIAAMTNSLFID [TEKT4],3.29 ± 0.33,3.33 ± 0.27
DQLYRRKKDNHALVRETDELRRNH [ELOA2],4.53 ± 0.42,4.48 ± 0.43
ASSLPAEVHSLTLSPPEQAAQPMQ [PLAGL1],5.07 ± 0.12,4.89 ± 0.26
SWYPKANNQDFIPFTKKRVGVDRA [ZC2HC1C],3.07 ± 0.33,2.94 ± 0.15
AGIREAKAKQEKVSAQYLSEIEMA [FLOT1],4.63 ± 0.33,4.75 ± 0.14
EEMAKSSRASAARVGQLQEALNER [LRRC45],4.97 ± 0.46,5.12 ± 0.28
ALTGPVVDIVTGHARLSDIWAKTP [DHCR7],2.63 ± 0.21,2.71 ± 0.17
PGTPPSYSSRTPGTPGTPSYPRTP [MAP2],4.72 ± 0.39,4.55 ± 0.34

Sequence,protein stability index (treatment: DMSO),"protein stability index (treatment: MLN4924 1 uM, 8 h)"
FTRPNEKGEYEVAEGIGSTVFRAI [BTBD10],3.18 ± 0.42,3.46 ± 0.38
ESFYESTSPECASPQFEGPLSPPP [NEUROD6],4.92 ± 0.19,4.94 ± 0.22
GYEKRNLARVPKLDLKRQYDRVAQ [CHGB],3.37 ± 0.55,3.11 ± 0.29
HLEGYHGTAGDSMSYHSGSVFSAR [TNXB],3.16 ± 0.43,3.47 ± 0.44
EDSYRKQVEVDAQQCMLEILDTAG [RAP1B],4.62 ± 0.13,4.5 ± 0.14
EIFAIDLRCGNQGKGWKATRLFHD [DCAF4],2.24 ± 0.44,2.12 ± 0.22
KMETMYPFIVTLEGNALQGPILQK [ZNF449],2.53 ± 0.24,2.48 ± 0.33
SNDFKSVLEVRTENLKQQRSRREQ [STX5],4.9 ± 0.21,4.92 ± 0.31
WHEIRQGRLPRIPQVLSQEFTELL [WEE1],2.42 ± 0.22,2.38 ± 0.23
RTLKSYLGLTNQSRRYNRKEPAEF [ZNF649],3.09 ± 0.31,3.05 ± 0.48
CTQVTQDGDIPNIPAEENASTSTP [FAM189A2],5.65 ± 0.2,5.5 ± 0.33
KKAFLNQAQIELRLLELMNQHDTE [DYRK1B],3.05 ± 0.3,3.35 ± 0.14
NCRLSEGDVMHLSQSPSVSQLSVL [PRAME],2.29 ± 0.63,2.37 ± 0.065
LALGPGESLPHRLSCLGQQQQEPP [PLAGL1],4.145 ± 0.038,4.23 ± 0.15
AACLLQLDGLIQQCGETMKETVNV [GMCL1],3.14 ± 0.24,3.07 ± 0.25
QGIFVEKYDPTIEDSYRKQVEVDA [RAP1B],4.72 ± 0.11,4.44 ± 0.12
RSHSDSLDHDIFQLIDPDENKENE [CDC25A],5.14 ± 0.44,5.48 ± 0.2
KKIFKSHLKSSRNSTSVKKKSSRN [P2RY14],3.87 ± 0.32,4.22 ± 0.41
APLIQPCHSESGKSRLVQLPPVAV [PCMTD2],3.13 ± 0.21,3.29 ± 0.38
MAAPEERDLTQEQTEKLLQFQDLT [FAF2],5.13 ± 0.29,5.16 ± 0.2
FNGELPNGRHKIPESQFPEFSTSL [SRPK2],3.51 ± 0.22,3.72 ± 0.32
AFEPEALGNLVEGLDFHRFYFENL [CAMK2A],2.51 ± 0.18,2.61 ± 0.3
